Data from publication PMC7367684, “Mechanical inhibition of isolated Vo from V/A-ATPase for proton conductance” (eLife, 2020).

B2: d subunit of the Thermus thermophilus V/A-ATPase (natural protein)
chain: MADDFAYLNARVRVRRGTLLKESFFQEALDLSFADFLRLLSETVYGGELAGQGLPDVDRAVLRTQAKLVGDLPRLVTGEAREAVRLLLLRNDLHNLQALLRAKATGRPFEEVLLLPGTLREEVWRQAYEAQDPAGMAQVLAVPGHPLARALRAVLRETQDLARVEALLAKRFFEDVAKAAKGLDQPALRDYLALEVDAENLRTAFKLQGSGLAPDAFFLKGGRFVDRVRFARLMEGDYAVLDELSGTPFSGLSGVRDLKALERGLRCVLLKEAKKGVQDPLGVGLVLAYVKEREWEAVRLRLLARRAYFGLPRAQVEEEVVCP
notes: d subunit (subunit C) of the V/A-ATPase of Thermus thermophilus, strain HB8
B3: D subunit of the Thermus thermophilus V/A-ATPase (natural protein)
chain: MSQVSPTRMNLLQRRGQLRLAQKGVDLLKKKRDALVAEFFGLVREAMEARKALDQAAKEAYAALLLAQAFDGPEVVAGAALGVPPLEGVEAEVENVWGSKVPRLKATFPDGALLSPVGTPAYTLEASRAFRRYAEALIRVANTETRLKKIGEEIKKTTRRVNALEQVVIPGIRAQIRFIQQVLEQREREDTFRLKRIKGKIEAREAEEEGGRPNPQVEIGAGL
notes: D subunit (central shaft) of the V/A-ATPase of Thermus thermophilus, strain HB8; holds the short helix called screw driver helix (SDH); also called subunit D; axis subunit of the V1 domain; source: T. thermophilus membranes, V/A-ATPase purified (Ni-NTA by the His3 tag on the c-subunit, Resource Q), in nanodiscs

Columns and labels:
[1] = biological target: B3; assay: cryo-EM structure; holo V/A-ATPase (His3 tag on the c subunit) in nanodiscs (MSP1E3D1, POPC), 20 mM Tris-HCl pH 8.0, 150 mM NaCl, 2 mM MgCl2; Titan Krios, Falcon II; rotational state 1, 3.6 Å overall, 3.5 Å focused map of A3B3DFE2G2dasol; settings: both partners purified
[2] = biological target: T1, a subunit of the Thermus thermophilus V/A-ATPase (Thermus thermophilus, UniProt Q5SIT6 1-652); assay: cryo-EM structure; isolated Vo (His3 tag on the c subunit) in nanodiscs (MSP1E3D1, DMPC by the methods), 20 mM Tris-HCl pH 8.0, 150 mM NaCl; CRYOARM200, K2 Summit; 3.9 Å; settings: both partners purified
T1 construct: a subunit (subunit I) of the V/A-ATPase of Thermus thermophilus, strain HB8; soluble arm domain asol and C-terminal hydrophobic domain aCT (membrane domain printed as A327-E637); also called asol (soluble arm domain); aCT (membrane-embedded C-terminal region)
T1 sequence: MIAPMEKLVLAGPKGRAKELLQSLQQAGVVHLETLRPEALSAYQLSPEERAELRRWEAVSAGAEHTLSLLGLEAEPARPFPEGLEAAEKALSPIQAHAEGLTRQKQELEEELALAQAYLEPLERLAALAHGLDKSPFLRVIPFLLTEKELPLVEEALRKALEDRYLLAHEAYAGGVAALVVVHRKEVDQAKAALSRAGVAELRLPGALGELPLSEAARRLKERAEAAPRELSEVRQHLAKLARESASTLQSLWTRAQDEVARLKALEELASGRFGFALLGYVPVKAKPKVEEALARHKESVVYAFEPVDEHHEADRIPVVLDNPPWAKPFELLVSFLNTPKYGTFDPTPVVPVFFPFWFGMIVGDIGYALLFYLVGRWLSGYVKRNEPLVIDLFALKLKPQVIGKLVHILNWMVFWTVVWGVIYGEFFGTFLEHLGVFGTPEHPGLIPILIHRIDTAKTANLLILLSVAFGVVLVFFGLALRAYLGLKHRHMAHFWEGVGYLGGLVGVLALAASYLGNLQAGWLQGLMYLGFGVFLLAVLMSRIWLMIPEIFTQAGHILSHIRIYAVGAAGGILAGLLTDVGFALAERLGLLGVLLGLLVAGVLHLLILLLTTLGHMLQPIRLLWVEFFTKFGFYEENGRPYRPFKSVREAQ

[3] = biological target: B2; assay: cryo-EM structure; holo V/A-ATPase (His3 tag on the c subunit) in nanodiscs (MSP1E3D1, POPC), 20 mM Tris-HCl pH 8.0, 150 mM NaCl, 2 mM MgCl2; Titan Krios, Falcon II; rotational state 1, 3.6 Å overall, 3.5 Å focused map of A3B3DFE2G2dasol; settings: both partners purified
[4] = biological target: the molecule itself; assay: cryo-EM structure; isolated Vo (His3 tag on the c subunit) in nanodiscs (MSP1E3D1, DMPC by the methods), 20 mM Tris-HCl pH 8.0, 150 mM NaCl; CRYOARM200, K2 Summit; 3.9 Å

B1: F subunit of the Thermus thermophilus V/A-ATPase (natural protein)
chain: MAVIADPETAQGFRLAGLEGYGASSAEEAQSLLETLVERGGYALVAVDEALLPDPERAVERLMRGRDLPVLLPIAGLKEAFQGHDVEGYMRELVRKTIGFDIKL
notes: F subunit (central shaft) of the V/A-ATPase of Thermus thermophilus, strain HB8; also called subunit F; source: T. thermophilus membranes, V/A-ATPase purified (Ni-NTA by the His3 tag on the c-subunit, Resource Q), in nanodiscs
- binding result [1]: binds

Binder: B2
- binding result [2]: binds

Binder: B3
- binding result [3]: binds

B4: c subunit of the Thermus thermophilus V/A-ATPase (c12 rotor ring) (natural protein)
chain: AEEAAASGGLDRGLIAVGMGLAVGLAALGTGVAQARIGAAGVGAIAEDRSNFGTALIFLLLPETLVIFGLLIAFILNGRL
notes: c subunit (subunit K/L, proteolipid) of the V/A-ATPase of Thermus thermophilus, strain HB8; chains Y and Z of the model are named in the text; Stands as a ring of twelve copies in Vo; also called c12 ring; c-ring; not shown: His3, C-terminal, kept; copies: 12
- stoichiometry N [4]: 12
